Laboratory results: patent US6890900B2, “Methods for treating or preventing diseases of the oral cavity” (Campina B.V., priority 2001, dated 2005)

Tested on: oral culture (oral swab from a healthy adult, oral flora)
Experiment: LF/GMP assay, viable plate count (pour plate) of broth culture
Format: cell-based, Streptococcus salivaris
Set-up: key to MIBC: NCF: No Effective Concentration Found
Conditions: 35° C.; for Colony Counts: viable plate count
Experimental: Bacterial strains used in this study were Pseudomonas aeruginosa ATCC #27853, Streptococcus mutans ATCC #33535, Streptococcus pyogenes ATCC #19615, and Actinobacillus haemophilus ATCC #43717 and an oral swab from a healthy adult. Bacteria were grown on blood/BHT media (Brain Heart Infusion Agar with protease peptone, sodium chloride, glucose, di-sodium phosphate, and agar, Oxoid, Hampshire England, Sheep's Blood) in the presence of 5% CO2 at 35° C. […] The 0.5 McFarland value is approximately equivalent to 1.0×10^8 organisms. One ml of the appropriate bacterial dilution was taken using a sterile pipette and introduced into 8 ml of sterilized BHI broth. […] By pipette, 9 ml of broth was placed into medium test tubes as means of a control and 8 ml test tubes were prepared for the concentration tests). […] This solution was filtered through a 0.45 μm filter. […] Example for calculating 2,500 ppm dilution (1,000 ppm=0.1%): [formula] [formula] [formula] To study the kinetics of LF/GMP binding, each strain of bacteria was taken separately with a sterile pipette and placed into an 8 ml BHI broth test tube, vortexed, and incubated in the presence of 1 ml of LF or GMP for 18-24 hours at 35° C. with 5% CO2. In the combination procedure, 0.5 ml of both LF and […] were taken as 1 ml inoculations. This technique was used to determine the density of living (viable) cells in inoculated broth cultures. It involves plating a bacterial sample and counting the resulting colonies after incubation. A serial dilution of the original broth was taken prior to plating. The serial dilution is necessary to reduce the density of organisms in order to create countable plates. Only plates containing between 25 and 250 colonies are considered countable. Cell densities are traditionally recorded as CFU (colony forming unit)/ml. […] Formula: [formula] The assays required the use of a pour plate technique. The pour plate technique adds a step to the conventional serial dilution. The 1 ml of dilution is added to a warm emulsion of dilute nutrient (BHI) agar to produce an agar overlay in the petri plates. After incubation, the bacterial growth covers the entire plate but individual cellular movement has been restricted by the soft agar overlay. Each colony formed is assumed to have originated from a single CFU. The plates were gently mixed, inverted, and incubated for 18-24 hour at 35° C. There is a mixture of microorganisms obtained in “normal oral flora.” Testing a swab taken from a healthy mouth cavity aided in the identification of the most common mouth flora. Experiments were conducted with the mouth culture to determine the antimicrobial effects of LF and GMP. Oral cultures were grown on BHI agar with added sheep's blood for 24 hours at 35° C. 5% CO2. […] These plates were incubated for another 24 hours. Here, isolated colonies were taken and were streaked on a BHI/Blood plate for growth of a pure culture. Streaking a plate produces isolated growth of microbial species in a mixed culture sample. Once isolated, pure cultures can be tested for species identification. The isolated colonies were Gram-stained to distinguish between Gram-positive and Gram-negative cells. The Gram stain is a differential stain in which a decolorization step occurs between the application of two basic stains. The next step was a catalase test to identify the organisms that produce the enzyme catalase. It was used to differentiate members of the catalase-positive Micrococcaceae and Staphylococci from the catalase-negative Streptococcaceae. Hydrogen peroxide was added to the bacteria and observed for a reaction (evidence of bubbles being formed). In the oral culture, three isolated colonies were tested for identification from a swabbed mouth cavity. […] This negative-catalase reaction was a confirmation of a streptococcus species. The API 20 Strep test was done on all three pure cultures to identify each species. The numbers were the results of the API 20 test. […]

B1: LF: Bovine lactoferrin, iron-binding glycoprotein purified from milk, provided by DMV International (protein, UniProt P24627 20-708, looked up)
Lactotransferrin: APRKNVRWCTISQPEWFKCRRWQWRMKKLGAPSITCVRRAFALECIRAIAEKKADAVTLDGGMVFEAGRDPYKLRPVAAEIYGTKESPQTHYYAVAVVKKGSNFQLDQLQGRKSCHTGLGRSAGWIIPMGILRPYLSWTESLEPLQGAVAKFFSASCVPCIDRQAYPNLCQLCKGEGENQCACSSREPYFGYSGAFKCLQDGAGDVAFVKETTVFENLPEKADRDQYELLCLNNSRAPVDAFKECHLAQVPSHAVVARSVDGKEDLIWKLLSKAQEKFGKNKSRSFQLFGSPPGQRDLLFKDSALGFLRIPSKVDSALYLGSRYLTTLKNLRETAEEVKARYTRVVWCAVGPEEQKKCQQWSQQSGQNVTCATASTTDDCIVLVLKGEADALNLDGGYIYTAGKCGLVPVLAENRKSSKHSSLDCVLRPTEGYLAVAVVKKANEGLTWNSLKDKKSCHTAVDRTAGWNIPMGLIVNQTGSCAFDEFFSQSCAPGADPKSRLCALCAGDDQGLDKCVPNSKEKYYGYTGAFRCLAEDVGDVAFVKNDTVWENTNGESTADWAKNLNREDFRLLCLDGTRKPVTEAQSCHLAVAPNHAVVSRSDRAAHVKQVLLHQQALFGKNGKNCPDKFCLFKSETKNLLFNDNTECLAKLGGRPTYEEYLGTEYVTAIANLKKCSTSPLLEACAFLTR
Colony Counts (50 ppm, 24 h): 4.8 × 10^8 | Colony Counts (100 ppm, 24 h): 4.2 × 10^8 | Colony Counts (250 ppm, 24 h): 4.3 × 10^8 | Colony Counts (500 ppm, 24 h): 4.0 × 10^8 | Colony Counts (1,000 ppm, 24 h): 3.9 × 10^8 | Colony Counts (3,000 ppm, 24 h): 3.4 × 10^8 | Total Log Reduction (Lactoferrin/GMP 250/0 ppm (LF alone)): 0 log | Total Log Reduction (Lactoferrin/GMP 3,000/0 ppm (LF alone)): 0 log | # Log Reductions (at the MIBC, vs control): 0 log | effect on growth (in words) (single agent, any tested concentration): not effected | MIBC (single agent, 24 h, 5% CO2): NCF
